The target in one data set is T1, TAF1 ZnD charge mutant (Homo sapiens, UniProt P21675 1256-1303, R1295A;K1298A).
T1 chain: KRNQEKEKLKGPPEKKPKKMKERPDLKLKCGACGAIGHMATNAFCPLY
The data set can be described thus: BLI; BLI: 10 mM HEPES pH 7.9, 5 mM MgCl2, 100 mM NaCl, 10% glycerol, 0.1% ovalbumin, 0.2 mM dI:dC, 30 °C; EMSA: 10 mM HEPES pH 7.9, 5 mM MgCl2, 100 mM NaCl, 10% glycerol, 20 mM tetrasodium pyrophosphate (so in the source), 0.2 mM dI:dC, 25 °C. The following applies: protein: recombinant; tags: His-GB1; label: 5'-biotin (BLI); 5'-32P (EMSA); blunt. On the technique in general: In BLI a coated tip is dipped into the sample, and binding shifts an interference pattern.

A further data set concerns the target T2, TAF1 ZnD cysteine mutant (Homo sapiens, UniProt P21675 1256-1303, C1285A;C1288A).
T2 chain: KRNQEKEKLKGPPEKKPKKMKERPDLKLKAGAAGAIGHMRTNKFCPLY
Described as above. The following applies: protein: recombinant; tags: His-GB1; label: 5'-biotin (BLI); 5'-32P (EMSA); blunt. Background: In EMSA bound probe runs differently from free probe, usually more slowly.

In another data set the target is T3, TAF1 ZnC cysteine mutant (Homo sapiens, UniProt P21675 1234-1303, C1285A;C1288A).
T3 sequence: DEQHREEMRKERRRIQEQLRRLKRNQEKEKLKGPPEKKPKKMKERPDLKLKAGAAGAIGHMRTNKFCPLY
Described as above. The settings on record: protein: recombinant; tags: His-GB1; label: 5'-biotin (BLI); 5'-32P (EMSA); blunt.

In a further data set the target is T4, TAF1 ZnA (Homo sapiens, UniProt P21675 1234-1371).
T4 sequence: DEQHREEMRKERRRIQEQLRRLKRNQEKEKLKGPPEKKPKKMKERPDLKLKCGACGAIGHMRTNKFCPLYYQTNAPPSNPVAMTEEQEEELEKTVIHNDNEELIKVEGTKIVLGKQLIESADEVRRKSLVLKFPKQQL
The data set can be described thus: BLI; 0.2 mM dI:dC, 5 mM Mg2+; BLI: 10 mM HEPES pH 7.9, 5 mM MgCl2, 100 mM NaCl, 10% glycerol, 0.1% ovalbumin, 0.2 mM dI:dC, 30 °C; EMSA: 10 mM HEPES pH 7.9, 5 mM MgCl2, 100 mM NaCl, 10% glycerol, 20 mM tetrasodium pyrophosphate (so in the source), 0.2 mM dI:dC, 25 °C. The settings on record: protein: recombinant; EMSA/proteolysis: tag removed by TEV; label: 5'-biotin (BLI); 5'-32P (EMSA); blunt.

The target of another data set is T5, TAF1 ZnC (Homo sapiens, UniProt P21675 1234-1303).
T5 sequence: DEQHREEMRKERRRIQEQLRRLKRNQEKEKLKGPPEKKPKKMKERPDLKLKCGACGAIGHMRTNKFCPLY
Described as above. The settings on record: protein: recombinant; tags: His-GB1; label: 5'-biotin (BLI); 5'-32P (EMSA); blunt.

The target of the next data set is T6, TAF1 ZnD (Homo sapiens, UniProt P21675 1256-1303).
T6 chain: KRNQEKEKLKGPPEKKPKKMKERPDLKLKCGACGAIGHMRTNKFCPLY
The data set is described as above. The settings on record: protein: recombinant; tags: His-GB1; label: 5'-biotin (BLI); 5'-32P (EMSA); blunt.

B1: IMD (Inr, MTE, DPE of super core promoter) (dsDNA)
DNA 1: GTCCTCAGTCGCGATCGAACACTCGAGCCGAGCAGACGTGCCTA
DNA 2: TAGGCACGTCTGCTCGGCTCGAGTGTTCGATCGCGACTGAGGAC
Usually Kd stands for the free concentration of one partner at which half of the binding sites on the other are occupied at equilibrium, for simple one-to-one binding. Regarding B1, the binding result in the data set with TAF1 ZnD charge mutant, with TAF1 ZnD cysteine mutant and with TAF1 ZnC cysteine mutant was “no binding” each time. Besides, the results for the dissociation constant Kd with TAF1 ZnA, with TAF1 ZnC and with TAF1 ZnD were 288 ± 46 nM, 343 ± 42 nM and 503 ± 67 nM, respectively.

B2: CD1P (cyclin D1 core promoter) (dsDNA)
DNA 1: AGGGGAGTTTTGTTGAAGTTGCAAAGTCCTGGAGCCTCCAGAGGGCTGTCG
DNA 2: CGACAGCCCTCTGGAGGCTCCAGGACTTTGCAACTTCAACAAAACTCCCCT
B2: the Kd in the data set with TAF1 ZnA turned out to be 411 ± 101 nM.

B3: Random DNA (dsDNA)
DNA 1: GAATGTCGCGAAGGCAGCGTTCGCGAAGACAGCAAAGAAG
DNA 2: CTTCTTTGCTGTCTTCGCGAACGCTGCCTTCGCGACATTC
Consider B3, for which the Kd in the data set with TAF1 ZnA came out at 1010 ± 228 nM.

The values above are taken from paper PMC5854669, “Zinc knuckle of TAF1 is a DNA binding module critical for TFIID promoter occupancy”.
